Laboratory results as given in IntAct's records for PubMed 19966308.

B1: Aquaporin-2 (Mus musculus), P56402 (parent)
chain: MWELRSIAFSRAVLAEFLATLLFVFFGLGSALQWASSPPSVLQIAVAFGLGIGTLVQALGHVSGAHINPAVTVACLVGCHVSFLRAAFYVAAQLLGAVAGAAILHEITPVEIRGDLAVNALHNNATAGQAVTVELFLTMQLVLCIFASTDERRSDNLGSPALSIGFSVTLGHLLGIYFTGCSMNPARSLAPAVVTGKFDDHWVFWIGPLVGAVIGSLLYNYLLFPSTKSLQERLAVLKGLEPDTDWEEREVRRRQSVELHSPQSLPRGSKA

Variants of: B1
Conditions: with anxa2_canlf ANXA2, Q6TEQ7
Chain of anxa2_canlf ANXA2, Q6TEQ7 (Q6TEQ7 whole entry): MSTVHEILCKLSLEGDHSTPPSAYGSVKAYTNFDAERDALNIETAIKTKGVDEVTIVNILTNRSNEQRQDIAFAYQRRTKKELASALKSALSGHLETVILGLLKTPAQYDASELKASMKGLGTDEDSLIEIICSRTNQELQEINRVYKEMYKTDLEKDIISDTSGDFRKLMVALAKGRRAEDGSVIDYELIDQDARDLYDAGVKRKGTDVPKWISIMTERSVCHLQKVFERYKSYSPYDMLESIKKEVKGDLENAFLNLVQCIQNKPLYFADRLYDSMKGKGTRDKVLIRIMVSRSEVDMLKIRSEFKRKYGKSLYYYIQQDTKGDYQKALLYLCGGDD

Row | Variant | effect of a mutation on the interaction
1 | MWELRSIAFSRAVLAEFLATLLFVFFGLGSALQWASSPPSVLQIAVAFGLGIGTLVQALGHVSGAHINPAVTVACLVGCHVSFLRAAFYVAAQLLGAVAGAAILHEITPVEIRGDLAVNALHNNATAGQAVTVELFLTMQLVLCIFASTDERRSDNLGSPALSIGFSVTLGHLLGIYFTGCSMNPARSLAPAVVTGKFDDHWVFWIGPLVGAVIGSLLYNYLLFPSTKSLQERLAVLKGLEPDTDWEEREVRRRQAVELHSPQSLPRGSKA [S256A] | increasing interaction

Variants of: B1
Conditions: with hsp71_canlf HSPA1, Q7YQC6
Chain of hsp71_canlf HSPA1, Q7YQC6 (Q7YQC6 whole entry): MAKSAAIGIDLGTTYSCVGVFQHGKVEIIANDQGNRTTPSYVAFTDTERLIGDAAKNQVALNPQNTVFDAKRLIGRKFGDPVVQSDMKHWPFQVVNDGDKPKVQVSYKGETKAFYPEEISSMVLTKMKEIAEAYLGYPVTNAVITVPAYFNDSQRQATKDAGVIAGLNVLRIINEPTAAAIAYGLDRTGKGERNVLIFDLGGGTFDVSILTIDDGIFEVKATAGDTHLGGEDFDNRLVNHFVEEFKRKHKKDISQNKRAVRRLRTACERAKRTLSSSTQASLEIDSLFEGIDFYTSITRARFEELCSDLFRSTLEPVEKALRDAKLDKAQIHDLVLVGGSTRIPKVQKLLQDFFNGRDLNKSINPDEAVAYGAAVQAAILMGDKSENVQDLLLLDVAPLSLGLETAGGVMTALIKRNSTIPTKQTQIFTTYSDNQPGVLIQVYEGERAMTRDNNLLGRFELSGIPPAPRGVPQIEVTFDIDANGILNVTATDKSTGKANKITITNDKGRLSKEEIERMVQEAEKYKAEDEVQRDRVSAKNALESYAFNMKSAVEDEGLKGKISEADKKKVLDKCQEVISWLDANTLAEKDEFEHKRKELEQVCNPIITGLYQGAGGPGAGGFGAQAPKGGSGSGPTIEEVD

Row | Variant | effect of a mutation on the interaction
2 | MWELRSIAFSRAVLAEFLATLLFVFFGLGSALQWASSPPSVLQIAVAFGLGIGTLVQALGHVSGAHINPAVTVACLVGCHVSFLRAAFYVAAQLLGAVAGAAILHEITPVEIRGDLAVNALHNNATAGQAVTVELFLTMQLVLCIFASTDERRSDNLGSPALSIGFSVTLGHLLGIYFTGCSMNPARSLAPAVVTGKFDDHWVFWIGPLVGAVIGSLLYNYLLFPSTKSLQERLAVLKGLEPDTDWEEREVRRRQSVELHSPQSLPRGDKA [S269D] | decreasing interaction
